# Laboratory results from patent US20260007748A1 (KELONIA THERAPEUTICS, published 2026).
# T1: B cell maturation antigen (BCMA) (human, UniProt Q02223 1-184)
# T1 construct: BCMA as carried by RPMI-8226 (high BCMA) and Daudi (low BCMA) tumor cells; also called TNFRSF17; tumor necrosis factor receptor superfamily member 17
# T1 sequence: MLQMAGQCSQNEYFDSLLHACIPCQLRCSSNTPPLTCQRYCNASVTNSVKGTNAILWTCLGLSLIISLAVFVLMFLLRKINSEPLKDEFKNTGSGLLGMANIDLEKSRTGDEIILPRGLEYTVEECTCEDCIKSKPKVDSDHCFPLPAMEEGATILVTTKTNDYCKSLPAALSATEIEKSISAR
# Molecular target: T1, B cell maturation antigen (BCMA)
# Assay: co-culture of transduced PBMCs with RPMI-8226 (high BCMA) or Daudi (low BCMA) cells; recognition read by IFNγ
# Method: PBMCs transduced with recombinant lentiviral particles comprising a viral envelope expressing a mutated VSIV-G and a non-viral membrane-bound tropism polypeptide that binds CD3 and a lentiviral vector encoding an MNDU3 promoter operably linked to a polynucleotide encoding a CD8α signal peptide and an anti-BCMA CAR and a WPRE operably linked to the 3′ prime end of the polynucleotide encoding the anti-BCMA CAR (18 anti-BCMA CARs were evaluated) were co-cultured with Daudi cells (low BCMA expression) or RPMI-8226 cells (high BCMA expression) for 24 hours. After 24 hours, IFNγ levels in co-culture supernatant were measured and plotted as a function of % anti-BCMA CAR positive cells in the co-culture.
# 5×10⁴ PBMCs transduced with recombinant lentiviruses LV 1 to LV 19 were co-cultured with 5×10⁴ high BCMA-expressing tumor cells (RPMI-8226) or 5×10⁴ low BCMA-expressing tumor cells (Daudi) for 24 hours. Anti-BCMA CAR activity was assessed by harvesting co-culture supernatants and measuring IFNγ levels using a Meso Scale Discovery (MSD®) assay. The percentage of anti-BCMA CAR positive cells was plotted against IFNγ levels produced in co-culture. FIG. 2D.
binder,measurement,value
"anti-BCMA CAR of recombinant lentivirus LV 9 (SEQ ID NO: 273) (other, Chimeric antigen receptor on transduced human PBMCs: anti-BCMA VHH, CD8α hinge and TM, CD137 costim, CD3ζ; also called LV 9.1 to LV 9.9) EVQLLESGGGLVQPGGSLRLSCAASGFTFGSEAMSWVRQAPGKERELVSAISGSGEVTYYADSVKGRFTISRDNSKNTLYLQMNSLRAEDTAVYYCQRLVEAKRHWGQGTQVTVSSTTTPAPRPPTPAPTIASQPLSLRPEACRPAAGGAVHTRGLDFACDIYIWAPLAGTCGVLLLSLVITLYCKRGRKKLLYIFKQPFMRPVQTTQEEDGCSCRFPEEEEGGCELRVKFSRSADAPAYQQGQNQLYNELNLGRREEYDVLDKRRGRDPEMGGKPRRKNPQEGLYNELQKDKMAEAYSEIGMKGERRRGKGHDGLYQGLSTATKDTYDALHMQALPPR",binding result,binds
